# In the supplement of paper PMC12042874:
# ± gives the uncertainty stated by the source.
# Assay: amyloid nucleation score (Sup35N fusion, yeast selection) (log enrichment); library NNK3; higher = more nucleation; inactive = no reads after selection
# In short: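 The nucleation score, computed with DiMSum, is the log enrichment of output over input reads, centred on the mode score of non-aggregating sequences. Sequences with under 100 input reads were dropped. Reads were generated by Illumina sequencing of plasmid inserts from psi-negative yeast with Sup35N fused to peptides of 20 random codons, induced with 100 μM copper sulfate for 24 hours and grown 7 days at 30°C on medium lacking adenine and uracil.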
row,Substance,amyloid nucleation score
1,LFQIM,inactive
2,LFRLYRLL,inactive
3,LFRPSL,inactive
4,LFSMSVSASHHWLERSFLTR,inactive
5,LFSTMFDTIENYNIGCTCGF,2.01 ± 0.053
6,LFSTNNYNQLWGMVGFLGFG,inactive
7,LFTLKLTVSKMKLWLLYGCS,inactive
8,LFVNNVVFHFIFLCPVHRTV,2.75 ± 0.06
9,LFVYVIQYVISVI,0.74 ± 0.14
10,LFWSWYGGWKLNWGI,0.661 ± 0.14
11,LFYFKRFWYVLLLANLLDM,inactive
12,LGCREDFCERIGCVLRVMLE,inactive
13,LGGLYLLIFLRSGPRRWSGT,inactive
14,LGICGVRRSLMKRR,inactive
15,LGLRHDICITDRINSGLRGS,inactive
16,LGQFDTDTLAHDSMGAGNAV,1.24 ± 0.16
17,LGRKNGGAVNVRRPHFDWDG,inactive
18,LGSFNDVWIVCADWFAFLKV,inactive
19,LGVFSRRACYLFRICLTELI,inactive
20,LGVYYVNNRYFADFKGVEHG,0.154 ± 0.67
21,LGWSMFLFDFSFKVKSH,inactive
22,LGYDRQGLLTEVYRFSYIIL,inactive
23,LHAWAVVLGFLETP,inactive
24,LHCFIAQFMQRYFREWSGNG,inactive
25,LHFGDMLLVCNTFFELRVLH,1.73 ± 0.08
26,LHGNLRNLI,inactive
27,LHITYGSFCTLVFLIIVRWF,inactive

row,Substance,amyloid nucleation score
1,LIALNYVWYTAQ,inactive
2,LIHVGRFTVRTKL,inactive
3,LIKSSRLCLPKYTGVCNSHK,-0.189 ± 0.88
4,LILNYGGLPWFIPIP,inactive
5,LINEECFFACVEVIGNVFRV,-0.888 ± 1.1
6,LIPFCAVHPLWEHHLSKSFF,inactive
7,LIQDFTSSGRI,inactive
8,LIQVIGLSIALRTMSCLRGS,inactive
9,LIRPDCEDTRFCIRSWDCQG,inactive
10,LIRYPGRSEDTVRFWRERMG,inactive
11,LIVSIYMCGCRKRITFLRVS,inactive
12,LKARYYNYIASERSGCEFHK,inactive
13,LKDLGYELIILAFKRLFLCC,inactive
14,LKIAQHRGSVFNGDKK,inactive
15,LKIGTFCSNPGSLIVVYLTV,inactive
16,LKLFLRVYCIDI,0.535 ± 0.23
17,LKPLGDSADGRWQLLWNSAD,inactive
18,LKSMLLFSMRSRSVKCCGGE,inactive
19,LKVCNISDWFNIACSVMSFH,1.93 ± 0.086
20,LKVTSFKALHCLTAYHSSPL,inactive
21,LKVVVDQKVG,1.27 ± 0.15
22,LKWAV,inactive
23,LLAGQAIEIDVCAQGLKLKF,-0.968 ± 1.8
24,LLCNESILKPVTPKWRDCKL,inactive
25,LLELRVVRLRTNVAVVHIYV,inactive
26,LLEQMQGFRLIQSGVHNTLM,inactive
27,LLFDDKCYGLVVDNYRYANI,inactive

row,Substance,amyloid nucleation score
1,LLFSAKGFECLMFVNRLYLA,inactive
2,LLFSLHCCCKSTYFFKSFLN,inactive
3,LLFTCQSDKDYVRFFVQFNW,inactive
4,LLGLFRLFKPQAFKGSPAAS,inactive
5,LLIMKGCAC,inactive
6,LLIVFLIFRMLRLAGASI,inactive
7,LLLASVRVRFRHWPTYLRYF,inactive
8,LLLCYYNGIWRFDGRLS,inactive
9,LLLFRKRLMLPRVLQQVPRH,inactive
10,LLLIFS,inactive
11,LLLSSILRYS,inactive
12,LLLSTRID,inactive
13,LLMFHCQMMSLGGYTSVSAR,inactive
14,LLMYARYSG,1.52 ± 0.11
15,LLQFLMFARNSMIKVVRSMV,inactive
16,LLRVNSEAGESCQVSFTFNM,1.73 ± 0.093
17,LLSETAHLFVFT,inactive
18,LLSPEEGGLKSECRRWSGAL,inactive
19,LLTGFLSKVSGQS,inactive
20,LLTIKN,inactive
21,LLVCVFFGVLKIYFIVAIRW,inactive
22,LLVESMDGGRPILQDGLFKY,inactive
23,LLVMGFCRVLCDLGGRYVRV,inactive
24,LLVPILCPFKV,inactive
25,LLVSIFLGYPQ,inactive
